Assay results taken from US20150344570A1 (published 2015).

Columns and labels:
FcgRIIaR = target: T1, FcgRIIaR (human, UniProt P12318 34-217); test: SPR (Biacore); KD of H240-Kn033/H240-Hl033/L73-k0 divided by KD of the variant
T1 construct: extracellular domain; also called FcγRIIa R; FcgRIIa type R; not shown: His tag attached to the C terminus
T1 sequence (looked up): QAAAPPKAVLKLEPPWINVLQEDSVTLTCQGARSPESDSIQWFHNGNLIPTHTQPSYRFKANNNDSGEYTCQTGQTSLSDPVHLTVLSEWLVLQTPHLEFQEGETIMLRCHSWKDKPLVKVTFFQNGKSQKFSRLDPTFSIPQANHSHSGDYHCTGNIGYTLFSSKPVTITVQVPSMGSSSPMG
Protocol: (§1) Binding of the produced variants to FcgRIa, FcgRIIaR, FcgRIIaH, FcgRIIb, FcgRIIIaF, and FcgRIIIaV was measured according to the method of Reference Example 8.
(§2) Analysis of interaction between objective antibody and the FcγR was carried out using Biacore T100 (GE Healthcare), Biacore T200, Biacore A100, and Biacore 4000. HBS-EP+ (GE Healthcare) was used as the running buffer, and the measurement temperature was set to 25° C. Chips produced by immobilizing the antigen peptide by the amine coupling method to a Series S sensor Chip CM5 (GE Healthcare), chips produced by allowing preliminarily biotinylated antigen peptides to interact with and immobilize onto a Series S Sensor Chip SA (certified) (GE Healthcare), chips produced by immobilizing Protein L (ACTIGEN, BioVision) to Series S Sencor Chip CM5 (GE Healthcare), or chips produced by immobilizing Protein A/G (Thermo Scientific) to Series S Sencor Chip CM5 (GE Healthcare) were used. Antibodies of interest were captured onto these chips, and allowed to interact to each FcγR diluted with running buffer. To regenerate and repeatedly use the chip, the antibodies captured onto the chip were washed off by reacting 10 mM glycine-HCl, pH 1.5.

FcgRIIaH = target: T2, FcgRIIaH (human, UniProt P12318 34-217); test: as above
T2 construct: extracellular domain; also called FcγRIIa H; FcgRIIa type H; not shown: His tag attached to the C terminus
T2 sequence (looked up): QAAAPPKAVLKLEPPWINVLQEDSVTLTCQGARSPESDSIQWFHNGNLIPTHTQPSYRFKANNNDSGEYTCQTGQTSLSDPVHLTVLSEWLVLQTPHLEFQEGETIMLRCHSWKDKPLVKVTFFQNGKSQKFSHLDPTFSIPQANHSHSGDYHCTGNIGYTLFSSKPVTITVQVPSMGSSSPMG
Protocol: as §1, §2

FcgRIIb [1] = target: T3, FcgRIIb (human, UniProt P31994 43-217); test: as above
T3 construct: extracellular domain; also called FcγRIIb; 2b; not shown: His tag attached to the C terminus
T3 sequence (looked up): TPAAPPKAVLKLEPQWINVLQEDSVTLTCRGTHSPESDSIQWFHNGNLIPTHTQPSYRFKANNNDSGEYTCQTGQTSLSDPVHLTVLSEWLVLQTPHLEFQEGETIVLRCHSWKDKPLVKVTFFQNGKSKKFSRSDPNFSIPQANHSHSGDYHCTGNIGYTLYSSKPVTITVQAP
Protocol: as §1, §2

FcgRIIIaF = target: T4, FcgRIIIaF (human, UniProt P08637 17-208); test: as above
T4 construct: extracellular domain; also called FcγRIIIa F; 3aF; not shown: His tag attached to the C terminus
T4 sequence (P08637 17-208): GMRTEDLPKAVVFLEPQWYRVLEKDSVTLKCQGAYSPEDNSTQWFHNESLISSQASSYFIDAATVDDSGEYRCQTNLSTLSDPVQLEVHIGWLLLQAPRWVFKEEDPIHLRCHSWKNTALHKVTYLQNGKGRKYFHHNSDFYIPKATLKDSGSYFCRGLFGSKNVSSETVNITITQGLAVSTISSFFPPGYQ
Protocol: as §1, §2

FcgRIIIaV = target: T5, FcgRIIIaV (human, UniProt P08637 17-208); test: as above
T5 construct: extracellular domain; also called FcγRIIIa V; 3aV; not shown: His tag attached to the C terminus
T5 sequence (P08637 17-208 F176V limits assumed): as the sequence (P08637 17-208) above, with F160V counted along it
Protocol: as §1, §2

FcgRIa = target: T6, FcgRIa (human, UniProt P12314 16-292); test: SPR (Biacore), antibody captured, FcgR as analyte
T6 construct: extracellular domain; also called FcγRIa; FcγRI
T6 sequence (P12314 16-292): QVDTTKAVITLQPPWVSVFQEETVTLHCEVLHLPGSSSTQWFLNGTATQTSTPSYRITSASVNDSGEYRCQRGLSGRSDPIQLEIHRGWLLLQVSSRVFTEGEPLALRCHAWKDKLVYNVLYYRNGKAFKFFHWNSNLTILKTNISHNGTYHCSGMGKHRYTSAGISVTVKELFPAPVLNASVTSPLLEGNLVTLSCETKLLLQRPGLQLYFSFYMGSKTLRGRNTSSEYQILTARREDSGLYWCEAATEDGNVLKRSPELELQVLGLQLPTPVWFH
Protocol: (§3) Specifically, H240-Kn120 (SEQ ID NO: 99) resulting from introduction of S239M into H240-Kn067 and H240-Kn126 (SEQ ID NO: 100) resulting from introduction of Y235Q into H240-Kn120 were prepared according to the method described in Reference Example 1. […] Those described above were assayed for the binding to each FcgR according to the method described in Reference Example 8.
as §2

FcgRIIa R = target: T7, FcgRIIa R (human, UniProt P12318 34-217); test: SPR (Biacore), antibody captured, FcgR as analyte
T7 construct: extracellular domain; also called FcγRIIa R; FcγRIIa type R
T7 sequence (looked up): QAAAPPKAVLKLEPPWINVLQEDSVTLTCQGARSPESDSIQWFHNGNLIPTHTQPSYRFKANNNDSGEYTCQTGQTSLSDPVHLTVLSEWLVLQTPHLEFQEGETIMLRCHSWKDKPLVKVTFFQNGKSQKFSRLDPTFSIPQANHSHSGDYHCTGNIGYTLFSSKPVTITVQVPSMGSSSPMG
Protocol: as §3, §2

FcgRIIa H = target: T8, FcgRIIa H (human, UniProt P12318 34-217); test: SPR (Biacore), antibody captured, FcgR as analyte
T8 construct: extracellular domain; also called FcγRIIa H; FcγRIIa type H
T8 sequence (looked up): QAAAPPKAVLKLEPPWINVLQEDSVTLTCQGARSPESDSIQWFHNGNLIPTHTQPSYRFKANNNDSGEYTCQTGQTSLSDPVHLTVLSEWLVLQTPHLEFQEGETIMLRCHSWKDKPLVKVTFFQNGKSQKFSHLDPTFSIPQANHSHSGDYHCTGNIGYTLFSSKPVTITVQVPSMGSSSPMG
Protocol: as §3, §2

FcgRIIb [2] = target: T9, FcgRIIb (human, UniProt P31994 43-217); test: SPR (Biacore), antibody captured, FcgR as analyte
T9 construct: extracellular domain; also called FcγRIIb; CD32B
T9 sequence (looked up): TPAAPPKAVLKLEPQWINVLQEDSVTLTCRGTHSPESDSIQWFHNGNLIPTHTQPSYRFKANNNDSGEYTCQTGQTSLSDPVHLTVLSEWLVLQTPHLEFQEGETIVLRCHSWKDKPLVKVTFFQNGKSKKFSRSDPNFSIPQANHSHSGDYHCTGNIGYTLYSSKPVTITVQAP
Protocol: as §3, §2

FcgRIIIa F = target: T10, FcgRIIIa F (human, UniProt P08637 17-208); test: SPR (Biacore), antibody captured, FcgR as analyte
T10 construct: extracellular domain; polymorphic site made after J. Clin. Invest; also called FcγRIIIa F
T10 sequence (P08637 17-208): as the sequence (P08637 17-208) above
Protocol: as §3, §2

FcgRIIIa V = target: T11, FcgRIIIa V (human, UniProt P08637 17-208); test: SPR (Biacore), antibody captured, FcgR as analyte
T11 construct: extracellular domain; polymorphic site made after J. Clin. Invest; also called FcγRIIIa V
T11 sequence (P08637 17-208 F176V limits assumed): as the sequence (P08637 17-208) above, with F160V counted along it
Protocol: as §3, §2

B1: H240-afucosyl_G1d/L73-k0 (antibody, human IgG1, kappa)
heavy: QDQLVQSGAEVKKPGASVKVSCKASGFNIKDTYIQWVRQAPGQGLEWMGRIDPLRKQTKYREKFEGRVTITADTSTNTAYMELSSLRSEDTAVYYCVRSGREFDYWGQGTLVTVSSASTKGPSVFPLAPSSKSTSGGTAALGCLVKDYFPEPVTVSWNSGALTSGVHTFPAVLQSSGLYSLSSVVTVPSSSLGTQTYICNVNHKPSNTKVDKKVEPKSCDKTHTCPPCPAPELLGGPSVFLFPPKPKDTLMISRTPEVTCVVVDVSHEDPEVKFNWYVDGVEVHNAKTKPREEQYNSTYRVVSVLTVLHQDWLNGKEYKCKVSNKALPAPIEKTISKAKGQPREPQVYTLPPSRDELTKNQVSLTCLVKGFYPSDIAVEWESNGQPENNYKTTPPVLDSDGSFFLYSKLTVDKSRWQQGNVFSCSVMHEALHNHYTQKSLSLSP
light: DIQMTQSPSSLSASVGDRVTITCRASQDIHKYIAWYQQKPGQAPRLLIQYTSTLQPGVPSRFSGSGSGTDYTFTISSLQPEDIATYYCLQYEQLRTFGGGTKVEIKRTVAAPSVFIFPPSDEQLKSGTASVVCLLNNFYPREAKVQWKVDNALQSGNSQESVTEQDSKDSTYSLSSTLTLSKADYEKHKVYACEVTHQGLSSPVTKSFNRGEC
modifications: afucosylated: fucose removed from the sugar chain of H240-G1d
notes: also called afucosylated antibody
fold 2aR (FcgRIIaR): 1.5 fold | fold 2aH (FcgRIIaH): 0.7 fold | fold 2b (FcgRIIb [1]): 1.3 fold | fold 3aF (FcgRIIIaF): 3.7 fold | fold 3aV (FcgRIIIaV): 7 fold

B2: H240-Kn126/H240-Hl068/L73-k0 (antibody, human IgG1, kappa)
heavy 1: QDQLVQSGAEVKKPGASVKVSCKASGFNIKDTYIQWVRQAPGQGLEWMGRIDPLRKQTKYREKFEGRVTITADTSTNTAYMELSSLRSEDTAVYYCVRSGREFDYWGQGTLVTVSSASTKGPSVFPLAPSSKSTSGGTAALGCLVKDYFPEPVTVSWNSGALTSGVHTFPAVLQSSGLYSLSSVVTVPSSSLGTQTYICNVNHKPSNTKVDKKVEPKSCDKTHTCPPCPAPEYQWGPMVFLFPPKPKDTLMISRTPEVTCVVVDVSDEDPEVKFNWYVDGVEVHNAKTKPREEQYNATYRVVSVLTVLHQDWLNGKEYKCKVSNKDLPAPIEKTISKAKGQPREPQVCTLPPSRDELTKNQVSLWCLVKGFYPSDIAVEWESNGQPENNYKTTPPVLDSDGSFFLYSKLTVDKSRWQQGNVFSCSVMHEALHNHYTQKSLSLSP
heavy 2: QDQLVQSGAEVKKPGASVKVSCKASGFNIKDTYIQWVRQAPGQGLEWMGRIDPLRKQTKYREKFEGRVTITADTSTNTAYMELSSLRSEDTAVYYCVRSGREFDYWGQGTLVTVSSASTKGPSVFPLAPSSKSTSGGTAALGCLVKDYFPEPVTVSWNSGALTSGVHTFPAVLQSSGLYSLSSVVTVPSSSLGTQTYICNVNHKPSNTKVDKKVEPKSCDKTHTCPPCPAPELLGGPSVFLFPPKPKDTLMISRTPEVTCVVVDVSHEEPEVKFNWYVDGVEVHNAKTKPREEQYNSTYRVVSVLTVLHQDWLNGKEYKCKVSNDALPKPIEETISKAKGQPREPQVYTLPPSRCELTKNQVSLSCAVKGFYPSDIAVEWESNGQPENNYKTTPPVLDSDGSFFLVSKLTVDKSRWQQGNVFSCSVMHEALHNHYTQKSLSLSP
light: DIQMTQSPSSLSASVGDRVTITCRASQDIHKYIAWYQQKPGQAPRLLIQYTSTLQPGVPSRFSGSGSGTDYTFTISSLQPEDIATYYCLQYEQLRTFGGGTKVEIKRTVAAPSVFIFPPSDEQLKSGTASVVCLLNNFYPREAKVQWKVDNALQSGNSQESVTEQDSKDSTYSLSSTLTLSKADYEKHKVYACEVTHQGLSSPVTKSFNRGEC
notes: H240-Kn126: Y235Q introduced into H240-Kn120
Kd (FcgRIa): 0.4 nM | Kd (FcgRIIa R): 76 nM | Kd (FcgRIIa H): 170 nM | Kd (FcgRIIb [2]): 520 nM | Kd (FcgRIIIa F): 3.7 nM | Kd (FcgRIIIa V): 0.64 nM
